B1: HDV Ribozyme (parent)
chain: GGCCGGCAUGGUCCCAGCCUCCUCGCUGGCGCCGGCUGGGCAACAUUCCGAGGGGACCGUCCCCUCGGUAAUGGCGAAUGGGACCCA

Variants of: B1
Assay: self-cleavage, relative activity (ratio to wild type); higher = more cleavage; co-transcriptional

Row | Variant | self-cleavage
1 | GGCCGGCAUGGUCCCAGCCUCCUCGCUGGCGCCGGCUGGGCAACAUUCCGAGGUGACCGUCCCCUCGGUAAUGGCGAAUGGGAACCA [G54U C84A] | 0.724
2 | GGCCGGCAUGGUCCCAGCCUCCUCGCUGGCGCCGGCUGGGCAACAUUCCGAGGUGACCGUCCCCUCGGUAAUGGCGAAUGGGAUCCA [G54U C84U] | 0.808
3 | GGCCGGCAUGGUCCCAGCCUCCUCGCUGGCGCCGGCUGGGCAACAUUCCGAGGUGACCGUCCCCUCGGUAAUGGCGAAUGGGAGCCA [G54U C84G] | 0.529
4 | GGCCGGCAUGGUCCCAGCCUCCUCGCUGGCGCCGGCUGGGCAACAUUCCGAGGCGACCGUCCCCUCGGUAAUGGCGAAUGGGAUCCA [G54C C84U] | 0.665
5 | GGCCGGCAUGGUCCCAGCCUCCUCGCUGGCGCCGGCUGGGCAACAUUCCGAGGUGACCGUCACCUCGGUAAUGGCGAAUGGGACCCA [G54U C62A] | 0.99
6 | GGCCGGCAUGGUCCCAGCCUCCUCGCUGGCGCCGGCUGGGCAACAUUCCGAGGGAACCGUGCCCUCGGUAAUGGCGAAUGGGACCCA [G55A C61G] | 1.06
7 | GGCCGGCAUGGUCCCAGCCUCCUCGCUGGCGCCGGCUGGGCAACAUUCCGAGGGAACCGUACCCUCGGUAAUGGCGAAUGGGACCCA [G55A C61A] | 0.956
8 | GGCCGGCAUGGUCCCAGCCUCCUCGCUGGCGCCGGCUGGGCAACAUUCCGAGGUGACCGUCCCCUUGGUAAUGGCGAAUGGGACCCA [G54U C66U] | 0.914
9 | GGCCGGCAUGGUCCCAGCCUCCUCGCUGGCGCCGGCUGGGCAACAUUCCGAGGUGACCGUUCCCUCGGUAAUGGCGAAUGGGACCCA [G54U C61U] | 0.895
10 | GGCCGGCAUGGUCCCAGCCUCCUCGCUGGCGCCGGCUGGGCAACAUUCCGAGGCGACCGUCCCCUCGGUAAUCGCGAAUGGGACCCA [G54C G73C] | 0.502
11 | GGCCGGCAUGGUCCCAGCCUCCUCGCUGGCGCCGGCUGGGCAACAUUCCGAGGCGACCGUCCCCUCGCUAAUGGCGAAUGGGACCCA [G54C G68C] | 0.346
12 | GGCCGGCAUGGUCCCAGCCUCCUCGCUGGCGCCGGCUGGGCAACAUUCCGAGGGAAUCGUCCCCUCGGUAAUGGCGAAUGGGACCCA [G55A C57U] | 0.925
13 | GGCCGGCAUGGUCCCAGCCUCCUCGCUGGCGCCGGCUGGGCAACAUUCCGAGGCGAUCGUCCCCUCGGUAAUGGCGAAUGGGACCCA [G54C C57U] | 0.997
14 | GGCCGGCAUGGUCCCAGCCUCCUCGCUGGCGCCGGCUGGGCAACAUUCCGAGGGAACCGUCCCCUCGGUAACGGCGAAUGGGACCCA [G55A U72C] | 1
15 | GGCCGGCAUGGUCCCAGCCUCCUCGCUGGCGCCGGCUGGGCAACAUUCCGAGGUGUCCGUCCCCUCGGUAAUGGCGAAUGGGACCCA [G54U A56U] | 0.953
16 | GGCCGGCAUGGUCCCAGCCUCCUCGCUGGCGCCGGCUGGGCAACAUUCCGAGGUGACCGUCCCCUCGGUAAUGGCGAAUUGGACCCA [G54U G80U] | 0.203
17 | GGCCGGCAUGGUCCCAGCCUCCUCGCUGGCGCCGGCUGGGCAACAUUCCGAGGUGACCGUCCCCUCGGUAAUGGCGAAUAGGACCCA [G54U G80A] | 0.257
18 | GGCCGGCAUGGUCCCAGCCUCCUCGCUGGCGCCGGCUGGGCAACAUUCCGAGGCGACCGUCCCCUCGGUAAUGGCAAAUGGGACCCA [G54C G76A] | 1.1
19 | GGCCGGCAUGGUCCCAGCCUCCUCGCUGGCGCCGGCUGGGCAACAUUCCGAGGCAACCGUCCCCUCGGUAAUGGCGAAUGGGACCCA [G54C G55A] | 1.08
20 | GGCCGGCAUGGUCCCAGCCUCCUCGCUGGCGCCGGCUGGGCAACAUUCCGAGGCGACCGUCCCCUCGGUAAUGGCGAAUGGGACCGA [G54C C86G] | 1.02
21 | GGCCGGCAUGGUCCCAGCCUCCUCGCUGGCGCCGGCUGGGCAACAUUCCGAGGCGACCGUCCCCUCGGUAAUGGCGAAUGGGACCAA [G54C C86A] | 0.962
22 | GGCCGGCAUGGUCCCAGCCUCCUCGCUGGCGCCGGCUGGGCAACAUUCCGAGGUGACCGUCCCCUCGGUAAUGGCGUAUGGGACCCA [G54U A77U] | 0.688

Row | Variant | self-cleavage
23 | GGCCGGCAUGGUCCCAGCCUCCUCGCUGGCGCCGGCUGGGCAACAUUCCGAGGUGACCGUCCCCUCGGUAAUGGCGGAUGGGACCCA [G54U A77G] | 0.878
24 | GGCCGGCAUGGUCCCAGCCUCCUCGCUGGCGCCGGCUGGGCAACAUUCCGAGGGAACCGUCCCCUCGGUAAUGGCGAAUGGGAUCCA [G55A C84U] | 0.741
25 | GGCCGGCAUGGUCCCAGCCUCCUCGCUGGCGCCGGCUGGGCAACAUUCCGAGGUGACCGUCCCCUCGGUCAUGGCGAAUGGGACCCA [G54U A70C] | 0.515
26 | GGCCGGCAUGGUCCCAGCCUCCUCGCUGGCGCCGGCUGGGCAACAUUCCGAGGGAACCGUCCCCUCGGUAAUGGCGAAUGGGACCUA [G55A C86U] | 0.989
27 | GGCCGGCAUGGUCCCAGCCUCCUCGCUGGCGCCGGCUGGGCAACAUUCCGAGGGAACCGUCCCCUCGCUAAUGGCGAAUGGGACCCA [G55A G68C] | 0.777
28 | GGCCGGCAUGGUCCCAGCCUCCUCGCUGGCGCCGGCUGGGCAACAUUCCGAGGGAACCCUCCCCUCGGUAAUGGCGAAUGGGACCCA [G55A G59C] | 1.06
29 | GGCCGGCAUGGUCCCAGCCUCCUCGCUGGCGCCGGCUGGGCAACAUUCCGAGGCGACCGUCCCGUCGGUAAUGGCGAAUGGGACCCA [G54C C64G] | 0.787
30 | GGCCGGCAUGGUCCCAGCCUCCUCGCUGGCGCCGGCUGGGCAACAUUCCGAGGGAACCGUCCCCUCGGAAAUGGCGAAUGGGACCCA [G55A U69A] | 0.857
31 | GGCCGGCAUGGUCCCAGCCUCCUCGCUGGCGCCGGCUGGGCAACAUUCCGAGGGAACCGUCCCCUCGGUAAUGGCGAAUGGUACCCA [G55A G82U] | 0.241
32 | GGCCGGCAUGGUCCCAGCCUCCUCGCUGGCGCCGGCUGGGCAACAUUCCGAGGUGACCGUCCCCUCGGUAAUGGGGAAUGGGACCCA [G54U C75G] | 0.114
33 | GGCCGGCAUGGUCCCAGCCUCCUCGCUGGCGCCGGCUGGGCAACAUUCCGAGGUGACCUUCCCCUCGGUAAUGGCGAAUGGGACCCA [G54U G59U] | 1.14
34 | GGCCGGCAUGGUCCCAGCCUCCUCGCUGGCGCCGGCUGGGCAACAUUCCGAGGUGACCAUCCCCUCGGUAAUGGCGAAUGGGACCCA [G54U G59A] | 1
35 | GGCCGGCAUGGUCCCAGCCUCCUCGCUGGCGCCGGCUGGGCAACAUUCCGAGGUUACCGUCCCCUCGGUAAUGGCGAAUGGGACCCA [G54U G55U] | 0.921
36 | GGCCGGCAUGGUCCCAGCCUCCUCGCUGGCGCCGGCUGGGCAACAUUCCGAGGGAACCGUCCUCUCGGUAAUGGCGAAUGGGACCCA [G55A C63U] | 0.913
37 | GGCCGGCAUGGUCCCAGCCUCCUCGCUGGCGCCGGCUGGGCAACAUUCCGAGGGAACCGCCCCCUCGGUAAUGGCGAAUGGGACCCA [G55A U60C] | 0.9
38 | GGCCGGCAUGGUCCCAGCCUCCUCGCUGGCGCCGGCUGGGCAACAUUCCGAGGGAACCGUCCCUUCGGUAAUGGCGAAUGGGACCCA [G55A C64U] | 1.04
39 | GGCCGGCAUGGUCCCAGCCUCCUCGCUGGCGCCGGCUGGGCAACAUUCCGAGGUGACCGUCCCCUCGGUAAUGGCGAAUGGGACCAA [G54U C86A] | 0.799
40 | GGCCGGCAUGGUCCCAGCCUCCUCGCUGGCGCCGGCUGGGCAACAUUCCGAGGUGACCGUCCCCUCGGUAAUGGCGAAUGGGACCGA [G54U C86G] | 1.01
41 | GGCCGGCAUGGUCCCAGCCUCCUCGCUGGCGCCGGCUGGGCAACAUUCCGAGGUGACCGUCCCCUCGGUAAUGGCGAAUGGGACCUA [G54U C86U] | 0.882
42 | GGCCGGCAUGGUCCCAGCCUCCUCGCUGGCGCCGGCUGGGCAACAUUCCGAGGCGACCGUCCCCUCGGUAAGGGCGAAUGGGACCCA [G54C U72G] | 0.431
43 | GGCCGGCAUGGUCCCAGCCUCCUCGCUGGCGCCGGCUGGGCAACAUUCCGAGGGAACCGUCCCCUCGGUAAUGGCGAAUGGGCCCCA [G55A A83C] | 0.731
44 | GGCCGGCAUGGUCCCAGCCUCCUCGCUGGCGCCGGCUGGGCAACAUUCCGAGGCGACCCUCCCCUCGGUAAUGGCGAAUGGGACCCA [G54C G59C] | 1.21

Row | Variant | self-cleavage
45 | GGCCGGCAUGGUCCCAGCCUCCUCGCUGGCGCCGGCUGGGCAACAUUCCGAGGCGACCGUCACCUCGGUAAUGGCGAAUGGGACCCA [G54C C62A] | 0.967
46 | GGCCGGCAUGGUCCCAGCCUCCUCGCUGGCGCCGGCUGGGCAACAUUCCGAGGCGACCGUCCCCUCGGUAAUGGCGAAUGGAACCCA [G54C G82A] | 0.226
47 | GGCCGGCAUGGUCCCAGCCUCCUCGCUGGCGCCGGCUGGGCAACAUUCCGAGGCGACCGUCCCCUCGGUAAUGGCGAAUGGUACCCA [G54C G82U] | 0.448
48 | GGCCGGCAUGGUCCCAGCCUCCUCGCUGGCGCCGGCUGGGCAACAUUCCGAGGGACCCGUCCCCUCGGUAAUGGCGAAUGGGACCCA [G55A A56C] | 0.895
49 | GGCCGGCAUGGUCCCAGCCUCCUCGCUGGCGCCGGCUGGGCAACAUUCCGAGGGAACCGUCCCCUCGGUAAUGGCGAAUGUGACCCA [G55A G81U] | 0.34
50 | GGCCGGCAUGGUCCCAGCCUCCUCGCUGGCGCCGGCUGGGCAACAUUCCGAGGGAACCGUCCCCUCGGUAAUGUCGAAUGGGACCCA [G55A G74U] | 0.541
51 | GGCCGGCAUGGUCCCAGCCUCCUCGCUGGCGCCGGCUGGGCAACAUUCCGAGGCGACAGUCCCCUCGGUAAUGGCGAAUGGGACCCA [G54C C58A] | 0.923
52 | GGCCGGCAUGGUCCCAGCCUCCUCGCUGGCGCCGGCUGGGCAACAUUCCGAGGUGACCGUCCCCUCGGUAAUGGCGAAAGGGACCCA [G54U U79A] | 0.982
53 | GGCCGGCAUGGUCCCAGCCUCCUCGCUGGCGCCGGCUGGGCAACAUUCCGAGGUGACCGUCCCCUCGGUAAUGGCGAACGGGACCCA [G54U U79C] | 0.513
54 | GGCCGGCAUGGUCCCAGCCUCCUCGCUGGCGCCGGCUGGGCAACAUUCCGAGGCGACCGGCCCCUCGGUAAUGGCGAAUGGGACCCA [G54C U60G] | 0.895
55 | GGCCGGCAUGGUCCCAGCCUCCUCGCUGGCGCCGGCUGGGCAACAUUCCGAGGGAACCGUCUCCUCGGUAAUGGCGAAUGGGACCCA [G55A C62U] | 1.03
56 | GGCCGGCAUGGUCCCAGCCUCCUCGCUGGCGCCGGCUGGGCAACAUUCCGAGGGAACCGUCACCUCGGUAAUGGCGAAUGGGACCCA [G55A C62A] | 1.01
57 | GGCCGGCAUGGUCCCAGCCUCCUCGCUGGCGCCGGCUGGGCAACAUUCCGAGGGAACCGUCCCCUCGGUAAUGGCGAAUGGGACUCA [G55A C85U] | 0.885
58 | GGCCGGCAUGGUCCCAGCCUCCUCGCUGGCGCCGGCUGGGCAACAUUCCGAGGGAACCGUCCCCUCGGUAAUGGCGAAUGGGACACA [G55A C85A] | 1.02
59 | GGCCGGCAUGGUCCCAGCCUCCUCGCUGGCGCCGGCUGGGCAACAUUCCGAGGGAACCGUCCCCUCGGUAAUGGCGCAUGGGACCCA [G55A A77C] | 0.302
60 | GGCCGGCAUGGUCCCAGCCUCCUCGCUGGCGCCGGCUGGGCAACAUUCCGAGGUGACCGUCCCCUCGGCAAUGGCGAAUGGGACCCA [G54U U69C] | 1.16
61 | GGCCGGCAUGGUCCCAGCCUCCUCGCUGGCGCCGGCUGGGCAACAUUCCGAGGUGACCGUCCUCUCGGUAAUGGCGAAUGGGACCCA [G54U C63U] | 0.892
62 | GGCCGGCAUGGUCCCAGCCUCCUCGCUGGCGCCGGCUGGGCAACAUUCCGAGGGAACCGUCCCCUCGGUAUUGGCGAAUGGGACCCA [G55A A71U] | 0.652
63 | GGCCGGCAUGGUCCCAGCCUCCUCGCUGGCGCCGGCUGGGCAACAUUCCGAGGGAACCGUCCCCUCGGUAGUGGCGAAUGGGACCCA [G55A A71G] | 1.1
64 | GGCCGGCAUGGUCCCAGCCUCCUCGCUGGCGCCGGCUGGGCAACAUUCCGAGGGAACCGUCCCCUCGGUACUGGCGAAUGGGACCCA [G55A A71C] | 0.978
